For assay [1], the target named is T1, SARS-CoV-2 S1 (SARS-CoV-2, UniProt P0DTC2 16-685).
T1 construct: range 16-685
The assay can be described thus: SPR. A general note: In SPR one partner is held on a chip, and binding of the other changes the refractive index at the surface.

The target in assay [2] is T1, SARS-CoV-2 S1. Nature of the assay: SPR. The source holds these as a separate data set.
Assay [3] deals with T2, S1 domain of SARS-CoV S protein (SARS-CoV, UniProt P59594 14-667).
T2 construct: domain: S1
The assay can be described thus: SPR.

Assay [4] addresses T2, S1 domain of SARS-CoV S protein. The assay can be described thus: cross-binding assay on the S1 domain of SARS-CoV S protein.

Where two headings read alike, the source gives them in different places.

B1: 5-1 (Fc fusion)
chain: EVQLVESGGGLVQPGGSLRLSCAASGGTFSSIGMGWFRQAPGKEREFVAAISWDGGATAYADSVKGRFTISADNSKNTAYLQMNSLKPEDTAVYYCAKEDVGKPFDWGQGTLVTVSS
For the molecule B1, in the assay with SARS-CoV-2 S1 [1], the Kd – broadly, the free concentration of one partner at which half of the binding sites on the other are occupied at equilibrium, for simple one-to-one binding – was determined as 6.6 nM.

B2: 6-63 (Fc fusion)
chain: EVQLVESGGGLVQPGGSLRLSCAASGQTFNMGWFRQAPGKEREFVAAIGSGGSTSYADSVKGRFTISADNSKNTAYLQMNSLKPEDTAVYYCWRLGNDYFDYWGQGTLVTVSS
In the case of B2, the Kd with SARS-CoV-2 S1 [1] was 46 nM; with SARS-CoV-2 S1 [2], 65 nM. The binding result in assay [3] is “no binding”.

B3: 2-5 (antibody, V domains shown)
VH: EVQLLESGGGLVQPGGSLRLSCAASGFTFSDFAMAWVRQAPGKGLEWVSAISGSGDITYYADSVKGRFTISRDNSKNTLYLQMNSLRAEDTAVYYCAREADGLHSPWHFDLWGQGTLVTVSS
VL: DIQMTQSPSSLSASVGDRVTITCRASQSIHTYLNWYQQKPGKAPKLLIYAASALASGVPSRFSGSGSGTDFTLTISSLQPEDFATYYCQQSYSAPPYTFGQGTKVEIK
B3: the binding result in assay [4] is listed as “binds”.

B4: 6-42 (Fc fusion)
chain: EVQLVESGGGLVQPGGSLRLSCAASGDTYGSYWMGWFRQAPGKEREFVAVITSGGSTNYADSVKGRFTISADNSKNTAYLQMNSLKPEDTAVYYCTHVQNSYYYAMDVWGQGTLVTVSS
Consider B4, for which the binding result with SARS-CoV-2 S1 [1] is “binds”.

B5: 2-2 (antibody, V domains shown)
VH: EVQLLESGGGLVQPGGSLRLSCAASGFTFSRHAMNWVRQAPGKGLEWVSGISGSGDETYYADSVKGRFTISRDNSKNTLYLQMNSLRAEDTAVYYCARDLPASYYDSSGYYWHNGMDVWGQGTLVTVSS
VL: DIQMTQSPSSLSASVGDRVTITCRASQTINTYLNWYQQKPGKAPKLLIYSASTLQSGVPSRFSGSGSGTDFTLTISSLQPEDFATYYCQQSYSTFTFGQGTKVEIK
In the assay with SARS-CoV-2 S1 [1], B5 showed a Kd of 21 nM. That is a double-digit nanomolar value.

B6: 6-3 (Fc fusion)
chain: EVQLVESGGGLVQPGGSLRLSCAASGFTFSPSWMGWFRQAPGKEREFVATINEYGGRNYADSVKGRFTISADNSKNTAYLQMNSLKPEDTAVYYCARVDRDFDYWGQGTLVTVSS
As to B6, the figures for the dissociation constant (Kd) with SARS-CoV-2 S1 [1] and with SARS-CoV-2 S1 [2] were 32 nM and 11 nM, respectively. Besides, the binding result in assay [3] was “no binding”.

For the origin of these results see patent US20230002478A1 (TWIST BIOSCIENCE, published 2023).
